Measured values from patent US20200392528A1, “IMPROVED PLANT EPSP SYNTHASES AND METHODS OF USE” (PIONEER HI-BRED INTERNATIONAL, INC., priority 2017, published 2020).
Where two headings read alike, the source gives them in different places.

Assays:
maize EPSPS [1] = assay: substrate saturation kinetic analysis (kcat, KM PEP, KI glyphosate); assay type: biochemical; settings: for kcat/Km*Ki: calculated with Km for PEP
Experimental: (§1) EPSPS activity was determined by quantifying the phosphate generated from the EPSPS reaction. Release of inorganic phosphate was coupled to its reaction with 2-amino-6-mercapto-7-methylpurine ribonucleoside (MESG), catalyzed by purine nucleoside phosphorylase, according to previously described protocols. To determine the kcat gly, enzyme preparations were normalized to 0.1 mg/ml and four- to six-microliter aliquots of normalized enzyme were added to the wells of a low UV-absorbing 96-well assay plate (Greiner UV-Star). Reactions were started with the addition of 2×147 μl of reaction mixture containing 25 mM Hepes, pH 7.0, 100 mM KCl, 5% ethylene glycol, 30 μM each of PEP and S3P, 0.15 mM MESG, 1.5 U/ml purine nucleoside phosphorylase (Sigma N8264) and 1 mM glyphosate. Absorbance was monitored at 4 sec intervals for 50 sec with a Spectramax plate reader (Molecular Devices). […] Division by the enzyme concentration (0.04 to 0.1 uM, depending on activity) yields “kcat gly” in units of min^−1.
(§2) Approximately 30 substitutions were designed into each library. Assuming an average incorporation rate of six substitutions per variant, the theoretical size of such libraries is ˜7×10^5. Libraries were screened using methods described previously and the enhanced method described in Example 2. The number of colony-forming units plated and screened was in the range of 50 to 100% of the theoretical size. Up to 200 colonies per library were picked for evaluation of the expressed variant. Proteins were purified as described previously in PCT/US2016/054399, incorporated herein by reference. Protein concentration was determined by measuring optical density at 280 nm. The extinction coefficient of native maize EPSPS (0.676 OD/mg/ml) was calculated by vNTI and used to convert OD280 to mg/ml. Kinetic parameters were determined as described in Example 1.
Combinatorial shuffling, maize native EPSPS—The mutations discovered were used to construct a combinatorial library designed to explore combinations of the desensitizing mutations in novel sequence contexts provided by the newly identified neutral mutations. Note that the amino acid position numbering in this Example 10 refers to the relative position of native maize EPSPS without the N-terminal Met. Therefore, G101A in this Example would be G102A in reference to SEQ ID NO: 1, wherein the maize EPSPS sequence has a Met added at the N-terminal. The diversity used was the same with the addition of G101A, T102 (IALGV) and P106(WA). In all, 43 substitutions at 29 positions were selected. The library was synthesized entirely from oligonucleotides, using the known technique of synthetic shuffling and was termed NatFS (Native, fully synthetic). The vector DNA of the library was transformed into the BL21(DE3) Tuner-AroA knockout strain and the cells were plated onto M9 medium containing either 30 mM glyphosate and 30 μM of the lac operon inducer isopropyl β-D-1-thiogalactopyranoside (IPTG) or 50 mM glyphosate and no IPTG. The 184 colonies that grew on either plate were picked and subjected to a second tier of screening in which EPSPS proteins were purified and activity measured at high (200 μM) and low (50 μM) PEP and S3P, with or without 10 μM glyphosate. Selected variants were subjected to substrate saturation kinetic analysis.

maize EPSPS [2] = assay: kcat gly / kgly: enzyme turnover under application conditions (30 μM PEP and S3P, 1 mM glyphosate), phosphate release coupled to MESG; assay type: biochemical
Experimental: A more straight-forward, accurate and meaningful parameter is one in which one rate measurement is performed under presumed in vivo conditions, if known. To establish a set of conditions that mimic those under which the mutated enzyme needs to perform, the concentrations of PEP and S3P were set low (30 uM, subject to the sensitivity of assay conditions) to approach the presumed intracellular concentrations (˜15 uM, the approximate values of KM for both PEP and S3P). Glyphosate is included at 1 mM. The pH is set at 7.0 and ionic strength at 100 mM KCl, also to mimic known in vivo conditions. Ethylene glycol is present at 5% (v/v) to approximate the dielectric constant of intracellular fluid. The parameter is termed “enzyme turnover under application conditions”, which is herein shortened to “kcat gly”. The conventional formatting of the expression “kcat” is not used, to avoid this term being characterized as a standard kinetic constant.
as §1, §2
A customized parameter for predicting performance in the treated plant that would be a more accurate representation than kcat/Km*Ki. […] However, kcat/Km*Ki may be inadequate for predicting the reaction velocity under the conditions of the application (plants sprayed with glyphosate) because it may neglect concentrations of substrate and inhibitor, factors that are not intrinsic to the enzyme, but on which the reaction rate depends. Therefore, libraries derived from C1 on in FIG. 2 were evaluated with a single rate measurement designed to take all factors in the rate equation for competitive inhibition into account. […] Glyphosate was included at 1 mM, a concentration attainable in tissues, especially meristems, receiving metabolite flow from treated leaves. The pH (7.0), ionic strength (100 mM KCl) and co-solvent concentration (5% ethylene glycol) were also intended to mimic in vivo conditions. The unit for the parameter is reaction rate (μM·min^−1) per enzyme concentration (μM), or min^−1, describing the enzyme turnover under application conditions, which we abbreviate as “kgly”. […]

[3] = Table 2, KM for PEP, read-out: KM
[4] = Table 2, discrimination between glyphosate and PEP
[5] = apparent Km, PEP present at 10 times its Km, read-out: Km S3P
[6] = apparent Km, S3P present at 10 times its Km, read-out: Km PEP
[7] = Table 2, 30 μM PEP and S3P, 1 mM glyphosate, pH 7.0

Molecule	Ki (maize EPSPS [1]; Ki for glyphosate) [µM]	kcat (maize EPSPS [1]; Table 2) [s⁻¹]	kcat/KM*KI (maize EPSPS [1]; Table 2)	Km (maize EPSPS [1]; [3]) [µM]	KI/KM (maize EPSPS [1]; [4])	Ki (maize EPSPS [1]; Table 2, inhibitor glyphosate) [µM]	Km (maize EPSPS [1]; [5]) [µM]	Km (maize EPSPS [1]; [6]) [µM]	kcat/Km*Ki (maize EPSPS [1])	kcat (maize EPSPS [1]; maize EPSPS variants) [s⁻¹]	kcat gly (maize EPSPS [2]; [7]) [s⁻¹]	also measured
G102A: maize EPSPS with G102A mutation (G101A when numbered without N-terminal Met) (protein, Zea mays) MAGAEEIVLQPIKEISGTVKLPGSKSLSNRILLLAALSEGTTVVDNLLNSEDVHYMLGALRTLGLSVEADKAAKRAVVVGCGGKFPVEDAKEEVQLFLGNAATAMRPLTAAVTAAGGNATYVLDGVPRMRERPIGDLVVGLKQLGADVDCFLGTDCPPVRVNGIGGLPGGKVKLSGSISSQYLSALLMAAPLALGDVEIEIIDKLISIPYVEMTLRLMERFGVKAEHSDSWDRFYIKGGQKYKSPKNAYVEGDASSASYFLAGAAITGGTVTVEGCGTTSLQGDVKFAEVLEMMGAKVTWTETSVTVTGPPREPFGRKHLKAIDVNMNKMPDVAMTLAVVALFADGPTAIRDVASWRVKETERMVAIRTELTKLGASVEEGPDYCIITPPEKLNVTAIDTYDDHRMAMAFSLAACAEVPVTIRDPGCTRKTFPDYFDVLSTFVKN	1930 ± 40	10.2	3176	315	5.11	1610	84 ± 2.5	333 ± 26	5780	16.67 ± 0.583	0.203	increase in Ki for glyphosate (maize EPSPS [1]; relative to native EPSPS): 30,00 fold; increase in Km for PEP (maize EPSPS [1]; relative to native EPSPS): 35 fold; KI/KM (maize EPSPS [1]; text b176): 5.1; kgly (maize EPSPS [2]; enzyme turnover at 30 μM PEP and S3P, 1 mM glyphosate): 25.7 ± 0.2 min⁻¹
Zm native: native maize EPSPS with added N-terminal Met, SEQ ID NO: 1, reference EPSPS sequence (protein, Zea mays) MAGAEEIVLQPIKEISGTVKLPGSKSLSNRILLLAALSEGTTVVDNLLNSEDVHYMLGALRTLGLSVEADKAAKRAVVVGCGGKFPVEDAKEEVQLFLGNAGTAMRPLTAAVTAAGGNATYVLDGVPRMRERPIGDLVVGLKQLGADVDCFLGTDCPPVRVNGIGGLPGGKVKLSGSISSQYLSALLMAAPLALGDVEIEIIDKLISIPYVEMTLRLMERFGVKAEHSDSWDRFYIKGGQKYKSPKNAYVEGDASSASYFLAGAAITGGTVTVEGCGTTSLQGDVKFAEVLEMMGAKVTWTETSVTVTGPPREPFGRKHLKAIDVNMNKMPDVAMTLAVVALFADGPTAIRDVASWRVKETERMVAIRTELTKLGASVEEGPDYCIITPPEKLNVTAIDTYDDHRMAMAFSLAACAEVPVTIRDPGCTRKTFPDYFDVLSTFVKN	0.066 ± 0.003	24.4	11.8	15.7	0.008	0.13	13.2 ± 0.6	9.5 ± 0.3	11	27.17 ± 0.233	0	kcat/KM*KI (maize EPSPS [1]): 11.8; Km (maize EPSPS [1]; approximate value, read-out: Km for S3P): 10 to 15 µM; Ki (maize EPSPS [1]; glyphosate, text b235): 0.066 µM; Km (maize EPSPS [1]; read-out: Km for PEP): 10 to 15 µM
Zm D2: maize EPSPS variant, SEQ ID NO: 10 (protein, Zea mays) MRGWEEIVLQPIKEISGTVKLPGSKSLSNRILLLAALSEGTTVVDNLLNSEDVHYMLGALRTLGLSVEHDKAAKRAVVVGCGGRFPVEDAKGEVQLFCGNAATAMRPLTAAVTAAGGNATYVLDGVPRMRERPIGDLVVGLKQLGADVDCFLGTDCPPVRVNGIGGLPGGKVKLSGSISSQYLSALLMAAPLALGDVEIEIIDKLISLPYVEMTLRLMERFGVKAEHSDSWDRFYIKGGQKYESPKNAYVEGDASSASYFLAGAAITGGTVTVEGCGTTSLQGDVKFAEVLEMMGAKVTWTETSVTVTGPPREPFGRKHLKAIDVNMNKMPDAAMTLAVVALFADGPTAIRDVASWRVKETERMVAIRTELTKLGASVEEGPDYCIITPPPKLNVTAIDTYGDHRMAMAFSLAACAEVPVTIRDPGCTRKTFPDYFDVLSTFVKN		6.07	18100	20	49.7	993					1.72	kcat gly (maize EPSPS [2]; Table 5, maize variants): 1.9 s⁻¹; Zm/Os (maize EPSPS [2]; Table 5, ratio of kcat gly, maize variant to rice ortholog): 1.28
Zm D2-64: maize EPSPS variant, SEQ ID NO: 7 (protein, Zea mays) MRKWEEIVLQPIKEISGTVKLPGSKSLSNRILLLAALSEGTTVVDNLLNSEDVLYMLGALRTLGLSVEHDKAAKRAVVVGCGGRFPVEDAKGEVQLFCGNAATAMRPLTAAVTAAGGNATYVLDGVPRMRERPIGDLVVGLKQLGADVDCFLGTDCPPVRVNGIGGLPGGKVKLSGSISSQYLSALLMAAPLALGDVEIEIIDKLISLPYVEMTLRLMERFGVKAEHSDSWDRFYIKGGQKYESPKNAYVEGDASSASYFLAGAAITGGTVTVEGCGTTSLQGDVKFAEVLEMMGAKVTWTETSVTVTGPPREPFGRKHLKAIDVNMNKMPDAAMTLAVVALFADGPTAIRDVASWRVKETERMVAICTELTKLGASVEEGPDYCIITPPPKLNVTAIDTYGDHRMAMAFSLAACAEVPVTIRDPGCTRKTFPDYFDVLSTFVKN		7.97	22900	19.6	47.9	938					1.68	
Zm D2-15: maize EPSPS variant, SEQ ID NO: 9 (protein, Zea mays) MRGWEEIVLQPIKEISGTVKLPGSKSLSNRILLLAALAEGTTVVDNLLNSEDVHYMLGALRTLGLSVEHDKAAKRAVVVGCGGRFPVEDAKEEVQLFCGNAATAMRPLTAAVTAAGGNATYVLDGVPRMRERPIGDLVVGLKQLGADVDCFLGTDCPPVRVNGIGGLPGGKVKLSGSISSQYLSALLMAAPLALGDVEIEIIDKLISLPYVEMTLRLMERFGVKAEHNDSWDRFYIKGGQKYESPKNAYVEGDASSASYFLAGAAITGGTVTVEGCGTTSLQGDVKFAEVLEMMGAKVTWTETSVTVSGPPREPFGRKHLKAIDVNMNKMPDAAMTLAVVALFADGPTAIRDVASWRVKETERMVAICTELTKLGASVEEGPDYCIITPPPKLNVTAIDTYGDHRMAMAFSLAACAEVPVTIRDPGCTRKTFPDYFDVLSTFVKN		7.87	36400	21.8	77.1	1680					1.7	
